{
  "source": "IntAct's records for PubMed 22745600",
  "parents": {"B1": {"name": "Homeobox protein extradenticle (Drosophila melanogaster (Fruit fly)), P40427 (parent)", "chain": "MEDPNRMLAHTGGMMAPQGYGLSGQDDGQNAGSENEVRKQKDIGEILQQIMSISEQSLDEAQARKHTLNCHRMKPALFSVLCEIKEKTVLSIRNTQEEEPPDPQLMRLDNMLIAEGVAGPEKGGGGAAAASAAAASQGGSLSIDGADNAIEHSDYRAKLAQIRQIYHQELEKYEQACNEFTTHVMNLLREQSRTRPITPKEIERMVQIIHKKFSSIQMQLKQSTCEAVMILRSRFLDARRKRRNFSKQASEILNEYFYSHLSNPYPSEEAKEELARKCGITVSQVSNWFGNKRIRYKKNIGKAQEEANLYAAKKAAGASPYSMAGPPSGTTTPMMSPAPPQDSMGYPMGSGGYDQQQPYDNSMGGYDPNLHQDLSP"}, "B2": {"name": "Pre-B-cell leukemia transcription factor 1 (Mus musculus), P41778 (parent)", "chain": "MDEQPRLMHSHAGVGMAGHPGLSQHLQDGAGGTEGEGGRKQDIGDILQQIMTITDQSLDEAQARKHALNCHRMKPALFNVLCEIKEKTVLSIRGAQEEEPTDPQLMRLDNMLLAEGVAGPEKGGGSAAAAAAAAASGGAGSDNSVEHSDYRAKLSQIRQIYHTELEKYEQACNEFTTHVMNLLREQSRTRPISPKEIERMVSIIHRKFSSIQMQLKQSTCEAVMILRSRFLDARRKRRNFNKQATEILNEYFYSHLSNPYPSEEAKEELAKKCGITVSQVSNWFGNKRIRYKKNIGKFQEEANIYAAKTAVTATNVSAHGSQANSPSTPNSAGSSSSFNMSNSGDLFMSVQSLNGDSYQGAQVGANVQSQVDTLRHVISQTGGYSDGLAASQMYSPQGISANGGWQDATTPSSVTSPTEGPGSVHSDTSN"}},
  "key": {"lab_drome lab, P10105": {"variants_of": "B1", "conditions": "with lab_drome lab"}, "abdb_drome Abd-B, P09087": {"variants_of": "B1", "conditions": "with abdb_drome Abd-B"}, "ubx_drome Ubx, P83949": {"variants_of": "B1", "conditions": "with ubx_drome Ubx"}, "abda_drome abd-A, P29555": {"variants_of": "B1", "conditions": "with abda_drome abd-A"}, "hxb8_mouse Hoxb8, P09632": {"variants_of": "B2", "conditions": "with hxb8_mouse Hoxb8, P09632"}},
  "data": [
    {"variant": "MEDPNRMLAHTGGMMAPQGYGLSGQDDGQNAGSENEVRKQKDIGEILQQIMSISEQSLDEAQARKHTLNCHRMKPALFSVLCEIKEKTVLSIRNTQEEEPPDPQLMRLDNMLIAEGVAGPEKGGGGAAAASAAAASQGGSLSIDGADNAIEHSDYRAKLAQIRQIYHQELEKYEQACNEFTTHVMNLLREQSRTRPITPKEIERMVQIIHKKFSSIQMQLKQSTCEAVMILRSRFLDARRKRRNFSKQASEILNEYFYSHLSNPYPSEEAKEELARKCGITVSQVSAWFGNKRIRYKKNIGKAQEEANLYAAKKAAGASPYSMAGPPSGTTTPMMSPAPPQDSMGYPMGSGGYDQQQPYDNSMGGYDPNLHQDLSP", "note": "[N287A]", "values": [
      {"measurement": "effect of a mutation on the interaction", "setting": "lab_drome lab, P10105", "value": "decreasing interaction strength"},
      {"measurement": "effect of a mutation on the interaction", "setting": "abdb_drome Abd-B, P09087", "value": "disrupting interaction strength"},
      {"measurement": "effect of a mutation on the interaction", "setting": "ubx_drome Ubx, P83949", "value": "decreasing interaction strength"},
      {"measurement": "effect of a mutation on the interaction", "setting": "abda_drome abd-A, P29555", "value": "decreasing interaction strength"}
    ]},
    {"variant": "MDEQPRLMHSHAGVGMAGHPGLSQHLQDGAGGTEGEGGRKQDIGDILQQIMTITDQSLDEAQARKHALNCHRMKPALFNVLCEIKEKTVLSIRGAQEEEPTDPQLMRLDNMLLAEGVAGPEKGGGSAAAAAAAAASGGAGSDNSVEHSDYRAKLSQIRQIYHTELEKYEQACNEFTTHVMNLLREQSRTRPISPKEIERMVSIIHRKFSSIQMQLKQSTCEAVMILRSRFLDARRKRRNFNKQATEILNEYFYSHLSNPYPSEEAKEELAKKCGITVSQVSAWFGNKRIRYKKNIGKFQEEANIYAAKTAVTATNVSAHGSQANSPSTPNSAGSSSSFNMSNSGDLFMSVQSLNGDSYQGAQVGANVQSQVDTLRHVISQTGGYSDGLAASQMYSPQGISANGGWQDATTPSSVTSPTEGPGSVHSDTSN", "note": "[N282A]", "values": [
      {"measurement": "effect of a mutation on the interaction", "setting": "hxb8_mouse Hoxb8, P09632", "value": "disrupting interaction strength"}
    ]}
  ]
}
